Source: patent EP4450093A1, “CLEAVABLE IMMUNE CELL ENGAGERS” (Synaffix B.V., priority 2023, dated 2024)

Biological target: IL-15 receptor on the IL-15 cells of the IL-15 bioassay (Promega, cat.# JA2015) (mouse cell line)
Experiment: cell-based or functional assay

With “trastuzumab (Herceptin), non-modified antibody” the Fold induction, IL-15 bioassay was 0.9 fold.
